Experimental findings from US8563520B2, “Treatment of ocular disease with inhibitors of alpha2 macroglobulin protein” (McGill University, priority 2005, dated 2013) are described below.

This data set relates to retinal ganglion cells (RGCs). Kind of data set: RGC loss after intraocular injection of α2 macroglobulin protein in normal eyes. Format: in vivo, rat. How it is done:
RGCs were labeled with 3% DII (1,1-dioctadecyl-3,3,3,3-tetramethylindocarbocyanine perchlorate) or with 3% fluorogold. Briefly, Wistar rats were anesthetized and their heads were mounted in a stereotactic apparatus.
7 days after dye injection, the vasculature of the rats were perfused-fixed (transcardiac perfusion in phosphate-buffer (PB), followed by 4% PFA in PB) and the eyes were enucleated. After post-fixing for 1 hour cuts were made through the sclera to form a Maltese cross pattern and retinas detached from the eyecup at the optic nerve head. The retinas were flat-mounted on glass slides (vitreous side up) air-dried and cover-slipped with mounting medium (Molecular Probes). The retinas were observed under fluorescence microscopy (Zeiss). […] RGCs were recognized in flat mounted retinas by the presence of retrogradely transported dye and by morphology. RGCs in all 4 quadrants (16 images per retina) were averaged and presented as […] of area counted.
To evaluate the potential role of α2 macroglobulin in the death of RGCs, α2 macrobglobulin protein was microinjected in normal eyes to determine whether glaucoma-like RGC death ensued. In this paradigm, a total of 1-2 μg of α2 macroglobulin were delivered by a single intraocular injection in normal eyes, and surviving RGCs were counted at days 14 or 28 post-injection, by retrograde labeling. […]

B1: α2m: α2 macroglobulin protein injected intraocularly into normal rat eyes (protein, UniProt P06238 28-1472, looked up)
Alpha-2-macroglobulin: SAPQKPIYMVMVPSLLHAGTPEKACFLFSHLNETVAVRVSLESVRGNQSLFTDLVVDKDLFHCTSFTVPQSSSDEVMFFTVQVKGATHEFRRRSTVLVKKKESLVFAQTDKPIYKPGQTVRFRVVSLDESFHPLNELIPLLYIQDPKNNRIAQWQNFNLEGGLKQLSFPLSSEPTQGSYKVVIRTESGRTVEHPFSVEEFVLPKFEVRVTVPETITILEEEMNVSVCGIYTYGKPVPGRVTVNICRKYSNPSNCFGEESVAFCEKLSQQLDGRGCFSQLVKTKSFQLKRQEYEMQLDVHAKIQEEGTGVEETGKGLTKITRTITKLSFVNVDSHFRQGIPFVGQVLLVDGRGTPIPYETIFIGADEANLYINTTTDKHGLARFSINTDDIMGTSLTVRAKYKDSNACYGFRWLTEENVEAWHTAYAVFSPSRSFLHLESLPDKLRCDQTLEVQAHYILNGEAMQELKELVFYYLMMAKGGIVRAGTHVLPLKQGQMRGHFSILISMETDLAPVARLVLYAILPNGEVVGDTAKYEIENCLANKVDLVFRPNSGLPATRALLSVMASPQSLCGLRAVDQSVLLMKPETELSASLIYDLLPVKDLTGFPQGADQREEDTNGCVKQNDTYINGILYSPVQNTNEEDMYGFLKDMGLKVFTNSNIRKPKVCERLRDNKGIPAAYHLVSQSHMDAFLESSESPTETRRSYFPETWIWDLVVVDSAGVAEVEVTVPDTITEWKAGAFCLSNDTGLGLSPVVQFQAFQPFFVELTMPYSVIRGEAFTLKATVLNYLPTCIRVAVQLEASPDFLAAPEEKEQRSHCICMNQRHTASWAVIPKSLGNVNFTVSAEALNSKELCGNEVPVVPEQGKKDTIIKSLLVEPEGLENEVTFNSLLCPMGAEVSELIALKLPSDVVEESARASVTVLGDILGSAMQNTQDLLKMPYGCGEQNMVLFAPNIYVLDYLNETQQLTQEIKTKAIAYLNTGYQRQLNYKHRDGSYSTFGDKPGRNHANTWLTAFVLKSFAQARKYIFIDEVHITQALLWLSQQQKDNGCFRSSGSLLNNAMKGGVEDEVTLSAYITIALLEMSLPVTHPVVRNALFCLDTAWKSARGGAGGSHVYTKALLAYAFALAGNQDTKKEILKSLDEEAVKEEDSVHWTRPQKPSVSVALWYQPQAPSAEVEMTAYVLLAYLTTEPAPTQEDLTAAMLIVKWLTKQQNSHGGFSSTQDTVVALHALSKYGSATFTRAKKAAQVTIHSSGTFSTKFQVNNNNQLLLQRVTLPTVPGDYTVKVTGEGCVYLQTSLKYSVLPREEEFPFTVVVQTLPGTCEDPKAHTSFQISLNISYTGSRSESNMAIADVKMVSGFIPLKPTVKMLERSVHVSRTEVSNNHVLIYLDKVSNQTVNLSFTVQQDIPIRDLKPAVVKVYDYYEKDEFAVAKYSAPCSTDYGNA
Turning to B1, the “RGC losses compared to vehicle PBS” value runs as follows: (2 weeks after single intraocular injection of 1-2 μg in normal eyes) 11±3%; (4 weeks after single intraocular injection of 1-2 μg in normal eyes) 28±11%.
